Residue numbers refer to the chain shown, from its start.
B1: M0113-G11 (Fab, V domains shown)
VH: EVQLLESGGGLVQPGGSLRLSCAASGFTFSHYMMQWVRQAPGKGLEWVSGIGPSGGWTKYADSVKGRFTISRDNSKNTLYLQMNSLRAEDTALYYCARLNYGDYVWGQGTLVTVSS
VL: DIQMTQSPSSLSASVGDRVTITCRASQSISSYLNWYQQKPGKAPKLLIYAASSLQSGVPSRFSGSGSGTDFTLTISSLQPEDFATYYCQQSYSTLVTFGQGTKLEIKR
B2: M0113-D05 (Fab, V domains shown)
VH: EVQLLESGGGLVQPGGSLRLSCAASGFTFSHYIMMWVRQAPGKGLEWVSSIYPSGGSTIYADSVKGRFTISRDNSKNTLYLQMNSLRAEDTAVYYCASATEGYYYGMDVWGQGTTVTVSS
VL: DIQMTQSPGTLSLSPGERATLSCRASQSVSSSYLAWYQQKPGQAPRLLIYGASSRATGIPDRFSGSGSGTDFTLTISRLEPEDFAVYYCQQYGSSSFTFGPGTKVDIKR
B3: M0108-E10 (Fab, V domains shown)
VH: EVQLLESGGGLVQPGGSLRLSCAASGFTFSRYRMVWVRQAPGKGLEWVSSIYPSGGYTKYADSVKGRFTISRDNSKNTLYLQMNSLRAEDTAVYYCARVITYNNFDSWGQGTLVTVSS
VL: DIQMTQSPGTLSLSPGERATLSCRASQTVSSTYLAWYQQKPGQAPRLLIYGASSRATGIPDRFSGGGSGTDFTLTISRLEPEDFAVYYCQQYGSSPPRYTFGQGTKLEIKR
B4: M0116-E08 (Fab, V domains shown)
VH: EVQLLESGGGLVQPGGSLRLSCAASGFTFSRYPMIWVRQAPGKGLEWVSVIYPSGGMTKYADSVKGRFTISRDNSKNTLYLQMNSLRAEDTAVYYCARVGSYGSLGYWGQGTLVTVSS
VL: DIQMTQSPSSLSASVGDRVTITCLASQSISSYLNWYQQKPGKAPKLLIYDASSLESGVPSRFSGSGSGTDFTLTISSLQPEDFAIYYCQQFNGYPPITFGQGTRLEIKR
B5: M0131-F12 (Fab, V domains shown)
VH: EVQLLESGGGLVQPGGSLRLSCAASGFTFSRYAMGWVRQAPGKGLEWVSYIGPSGGNTTYADSVKGRFTISRDNSKNTLYLQMNSLRAEDTAVYYCARDVGGSGSYYMLSYYYYGMDVWGQGTMVTVSS
VL: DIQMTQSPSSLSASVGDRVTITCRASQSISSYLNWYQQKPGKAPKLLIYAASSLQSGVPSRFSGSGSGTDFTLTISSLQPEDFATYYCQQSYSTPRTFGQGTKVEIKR
B6: M0132-C08 (Fab, V domains shown)
VH: EVQLLESGGGLVQPGGSLRLSCAASGFTFSLYFMTWVRQAPGKGLEWVSSISSSGGSTKYADSVKGRFTISRDNSKNTLYLQMNSLRAEDTAVYYCARGGQWLAFDYWGQGTLVTVSS
VL: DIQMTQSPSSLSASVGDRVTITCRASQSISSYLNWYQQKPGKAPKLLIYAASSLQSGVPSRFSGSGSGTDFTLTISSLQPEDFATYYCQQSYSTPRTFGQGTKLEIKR
B7: M0115-F04 (Fab, V domains shown)
VH: EVQLLESGGGLVQPGGSLRLSCAASGFTFSNYLMGWVRQAPGKGLEWVSSIGPSGGYTKYADSVKGRFTISRDNSKNTLYLQMNSLRAEDTAVYYCARGTGTTFFWGQGTLVTVSS
VL: AQSALTQPPSVSVSPGQTVSITCSGDDLGGRHVSWFQQLSGQSPVLVIYQDDKRPSGIPERFSGSNSGNTATLTISGTQSVDEGDYYCLAWHNYKYVFGSGTTVTVLR
B8: M0124-A01 (Fab, V domains shown)
VH: EVQLLESGGGLVQPGGSLRLSCAASGFTFSNYPMYWVRQAPGKGLEWVSRIGPSGGHTDYADSVKGRFTISRDNSKNTLYLQMNSLRAEDTAVYYCARAGVWSGLDYWGQGTLVTVSS
VL: DIQMTQSPSSLSASVGDRVTITCRASQSITGYLNWYQQKPGKAPKLLIYAASSLQSGVPSRFSGSGSGTDFTLSISSLQPEDFATYYCQQSYSTPYTFGQGTKLEIKR
B9: M0106-D06 (Fab, V domains shown)
VH: B6 VH with L31Y, F33L, T35G, S52G, S53P, S57T, G99R, Q101L, W102G, L103A
VL: B8 VL with L11V, S28G, T30S, G31S, Y32W, N34A, S74T, S91A, Y92N, T94F
B10: M0102-C02 (Fab, V domains shown)
VH: EVQLLESGGGLVQPGGSLRLSCAASGFTFSHYLMHWVRQAPGKGLEWVSSIYPSGGKTQYADSVKGRFTISRDNSKNTLYLQMNSLRAEDTAVYYCARVFGYYDFWSGYPGAFDYWGQGTLVTVSS
VL: B8 VL with S28G, T30S, G31S, Y32S, N34A, A43V, S53T, S74T, Y96W, L104V
B11: M0093-C08 (Fab, V domains shown)
VH: EVQLLESGGGLVQPGGSLRLSCAASGFTFSRYPMGWVRQAPGKGLEWVSSIYPSGGSTYYADSVKGRFTISRDNSKNTLYLQMNSLRAEDTAVYYCARVGVWYGMDVWGQGTTVTVSS
VL: DIQMTQSPGTLSLSPGERATLSCRASQSVSSSYLAWYQQKPGQAPRLLIFAASTRATGIPDRFSGSGSATDFTLTISSLEPEDFAVYYCQQRSNWPPELTFSGGTKVEIKR
B12: M0114-G09 (Fab, V domains shown)
VH: B11 VH with R31H, P33A, G35D, S50V, P53S, S57K, Y59T, V93M
VL: AQSALTQPASVSGSPGQSITISCTGTSSDVGSYKLVSWYQQHPGKAPKLMIYEGSKRPSGVSNRFSGSKSGNTASLTISGLQAEDEADYYCCSYAGSSTWVFGGGTKLTVLG
B13: M0131-B05 (Fab, V domains shown)
VH: B11 VH with R31H, P33V, G35S, S50Y, S57K, Y59H
VL: AQYELTQPASVSGSPGQSITISCTGTSSDIGAYNYVSWYQQHPGKAPKLMIYDVSNRPSGVSNRFSGSKSGNTASLTISGLQAEDEADYYCSSYRSSSLMFGGGTKLTVLG
B14: M0112-D04 (Fab, V domains shown)
VH: B11 VH with R31H, P33V, G35V, S50G, Y52R, P53S, S57V, Y59A, V93M
VL: AQSALTQPLSVSVALGQTARITCGGNNIGSKNVHWYQQKPGQAPVLVIYRDSNRPSGIPERFSGSNSGNTATLTISGAQAGDEADYYCQVWDSSTVFGGGTKLTVLG
B15: M0116-A08 (Fab, V domains shown)
VH: B11 VH with R31Y, P33M, P53T, S57Y, Y59K, V99A, G100S, V101I, W102Y
VL: DIQMTQSPGTLSLSPGERATLSCRASQSVSNSYLAWYQQRPGQAPRLLIYGASSRATGIPDRFSGSGSGTEFTLTISRLEPEDFAVYYCQQFGSSTGYTFGQGTKLELKR
B16: M0124-C04 (Fab, V domains shown)
VH: B11 VH with R31W, P33L, S50V, Y52G, S57L, Y59K, V99F, G100R, V101G, W102Y
VL: not shown
B17: M0110-D06 (Fab, V domains shown)
VH: B11 VH with R31W, P33R, G35A, S50Y, Y52G, Y59S, V93T, V101T, W102F
VL: DIQMTQSPSTLSASLGDRVIITCRASQGIRSWLAWYQQKPGKAPKLLIYAASSLQSGVPSRFSGSGSGTDFTLTISSLQPEDFATYYCQQSYSTPWTFGQGTKVEIKR
B18: M0102-D07 (Fab, V domains shown)
VH: EVQLLESGGGLVQPGGSLRLSCAASGFTFSRYWMWWVRQAPGKGLEWVSSIGPSGGATRYADSVKGRFTISRDNSKNTLYLQMNSLRAEDTAVYYCTTGSAGNWGQGTLVTVSS
VL: DIQMTQSPGTLSLSPGERATLSCGASQSVSTTYIAWYQHKPGQPPRLLIYGASNRATGIPDRFRGSGSGTDFTLTISRLEPEDFAVYYCQQYGSSPYTFGQGTKLEIKR
B19: M0103-E09 (Fab, V domains shown)
VH: EVQLLESGGGLVQPGGSLRLSCAASGFTFSHYSMLWVRQAPGKGLEWVSSIRPSGGFTKYADSVKGRFTISRDNSKNTLYLQMNSLRAEDTAVYYCARRGVWDAFDIWGQGTMVTVSS
VL: AQYELTQPASVSGSPGQSITISCTGTNTDVGGYNFVSWYQQYPGKAPKLIIFDVTNRPSGVSNRFSGSKSGNTASLTISGLQAEDEADYYCCSYTNTNTLVFAGGTKVTVLG
B20: M0104-D12 (Fab, V domains shown)
VH: B19 VH with S33A, L35F, R52W, F57K, K59M, V93T, R99G, V101S, W102Y, D103L
VL: DIQMTQSPSSLSASVGDRVTITCRASLSVSGYLNWYQHKPGRAPNLLIYATSSLQSGVPSRFSGSGSGTDFTLTVSSLQPEDLATYYCQQSYSSPYTFGQGTKVEIKG
B21: M0103-H07 (Fab, V domains shown)
VH: B19 VH with S33G, L35Y, R52Y, F57W, K59N, V101S, D103G
VL: DIQMTQSPSSLSASVGDRVAITCRASQSIDTYLNWYQQKPGKAPKLLIYAASKLEDGVPSRFSGSGTGTDFTLTIRSLQPEDFATYYCQPYNTYPITFGQGTRLEIKR
B22: M0131-D01 (Fab, V domains shown)
VH: B19 VH with S33N, L35N, S50V, R52Y, F57Q, K59H, V101I, D103H, A104S
VL: DIQMTQSPGTLSLSPGERASLSCRASQSVSSNYLSWYQQKPGQAPRLLIYGTSNRASGIPVRFSGSGSGTDFTLTISRLEPEDFAVYYCQQYGGAPLFIFGPGTRVDIKR

Target: T1, hK1 (human tissue kallikrein 1), recombinant (human, UniProt P06870 25-262)
T1 construct: Expressed in P. pastoris from KLK1 cDNA and purified; enzymatically active; also called KLK1; Recombinant (Pichia) Kallikrein
Experiment: SPR

Row | Kd [nM] | koff [s⁻¹] | kon [M⁻¹ s⁻¹] | Binder
1 | 42.5 | 0.0121 | 286000 | B1
2 | 152 | 0.00214 | 14100 | B2
3 | 58.4 | 0.0134 | 230000 | B3
4 | 72.7 | 0.0164 | 225000 | B4
5 | 37 | 0.00472 | 128000 | B5
6 | 1.3 | 0.000444 | 342000 | B6
7 | 41.6 | 0.0131 | 314000 | B7
8 | 33.9 | 0.0114 | 336000 | B8
9 | 123 | 0.019 | 154000 | B9
10 | 43.5 | 0.00628 | 144000 | B10
11 | 40.7 | 0.00578 | 142000 | B11
12 | 1.46 | 0.00062 | 424000 | B12
13 | 0.46 | 0.000117 | 255000 | B13
14 | 54.2 | 0.00956 | 176000 | B14
15 | 88.3 | 0.00994 | 113000 | B15
16 | 372 | 0.286 | 768000 | B16
17 | 232 | 0.0175 | 75600 | B17
18 | 78.6 | 0.0122 | 155000 | B18
19 | 36.4 | 0.00884 | 243000 | B19
20 | 61.3 | 0.0192 | 314000 | B20
21 | 85.7 | 0.0086 | 100000 | B21
22 | 1.04 | 0.000325 | 311000 | B22

Reference: US7329737 (DYAX, dated 2008)
